Molecular target: WXyn43, GH43 β-xylosidase from Weissella sp. strain 92 (full-length enzyme) (Weissella sp. strain 92)
Test: SEC

WXyn43, GH43 β-xylosidase from Weissella sp. strain 92 (full-length enzyme)
stoichiometry N: 4

From publication PMC4691288
